Source: patent publication US12115264B2, “Sterilization and filtration of peptide compositions” (3-D Matrix, Ltd., priority 2014, dated 2024)
Where no end group is shown, it is not given here.

Tests used:
Type in all cases: physicochemical
[1] = Time sweep tests (rheological strength) before and after autoclave treatment; settings: time sweep test
Description: Rheological properties of certain peptide compositions were determined before and after autoclaving.

[2] = Rheological properties of peptide solutions at selected concentrations; settings: for Loss Modulus (G″) / Storage Modulus (G′): at 1 Pa of oscillation stress; for Max. Viscosity (max η′): from viscosity plots at the range of measured stress
Description: Rheological properties were determined for a variety of peptide solutions. […] For example 2% KLD12 (SEQ ID NO:2), 2.5% KLD12 (SEQ ID NO:2), and 1.5% IEIK13 (SEQ ID NO:3) solutions have 2, 3.4, and 3.2 times higher maximum viscosities than 2.5% RADA16 (SEQ ID NO:1), respectively.

[3] = Shear flow test (rheometer DHR-1, 20 mm plates); settings: for yield stress (shear flow test): shear rate 0.003 to 1000
Description: Shear flow tests were performed on peptide solutions using a rheometer (DHR-1, TA Instruments) with 20 mm plates. Results are shown in FIG. 9 for 2.5% RADA16 (SEQ ID NO:1) solutions and FIG. 10 for 1.5% IEIK13 (SEQ ID NO:3) solutions. […] That is, as shear rate increased, their viscosities were dramatically dropped. […] The yield stress was about 40 Pa for 2.5% RADA16 (SEQ ID NO:1) solution and about 60 Pa for 1.5% IEIK13 (SEQ ID NO:3) solution.

[4] = Storage modulus recovery after injection through 30-gauge needle
Description: RADA16 (SEQ ID NO:1) was injected through 30-gauge needle so that applied shear stress reduced stiffness of the peptides. The measurements were started 1 minute after the injection.
KLD12 (SEQ ID NO:2) was injected through 30-gauge needle so that the applied shear stress reduced stiffness of the peptides. The measurements were started 1 minute after the injection.
IEIK13 (SEQ ID NO:3) was injected through 30-gauge needle so that the applied shear stress reduced stiffness of the peptides. The measurements were started 1 minute after the injection.
The percentages of recovery back to the original storage modulus at 1 min and 20 min after injection peptide compositions through a 30 gauge needle are listed in Table 2. The recovery rate of IEIK13 (specifically, of a […]; SEQ ID NO:3) was the fastest among the peptide solutions, showing 100% recovery to the original storage modulus in 20 min. […] In some non-limiting embodiments, it may take about 12 to 48 hours for full recovery to an original modulus after passage through a needle (e.g., injection).
Rheological measurements were performed for RADA16 (SEQ ID NO:1) and IEIK13 (SEQ ID NO:3) solutions after injecting them through 30 gauge needles. […] The results are shown in FIG. 6 for RADA16 (SEQ ID NO:1), FIG. 7 for KLD12 (SEQ ID NO:2), and FIG. 8 for IEIK13 (SEQ ID NO:3).

[5] = Apparent viscosity change after passage through membrane shear-thinning unit (container-inversion test)
From the text: The top row includes pictures of 2.5% KLD12 (SEQ ID NO:2). The bottom row includes pictures of 1.5% IEIK13 (SEQ ID NO:3). The solutions in the most left column stay on the top of the vials. The solutions in the most right column (after applying shear stress) have low viscosity, so that most materials are located at the bottom of vials.
To examine the effect of pore size in the shear-thinning unit on viscosity change of viscous peptide solutions, 2.5% KLD12 (SEQ ID NO:2) and 1.5% IEIK13 (SEQ ID NO:3) solutions were passed through selected pore sizes, and their apparent viscosity changes were evaluated. 2.5% KLD12 (SEQ ID NO:2) solutions passed through the shear-thinning unit with the pore sizes of 41 μm, 20 μm, and 5 μm.

[6] = 2.5%, 1 min after injection through 30-gauge needle
[7] = 2.5%, 20 min after injection through 30-gauge needle
[8] = 1%, 1 min after injection through 30-gauge needle
[9] = 1%, 20 min after injection through 30-gauge needle

In the case of “Ile-Glu-Ile-Lys-Ile-Glu-Ile-Lys-Ile-Glu-Ile-Lys-Ile [IEIK13]”, the “rheological strength after autoclaving versus non-autoclaved” value [1] is reported as “almost identical rheological strength”, the “times higher maximum viscosity than 2.5% RADA16” value ([2]; 1.5% solution) is reported as 3.2 times and the “Yield Stress” value ([2]; Conc. 1%) is reported as 39.8 Pa. For the same substance, the “Loss Modulus (G″)” value ([2]; Conc. 1%) was 77 Pa, the “Storage Modulus (G′)” value ([2]; Conc. 1%) was 719 Pa and the “Max. Viscosity (max η′)” value ([2]; Conc. 1%) was 12.9 Pa · s. The “Yield Stress” value ([2]; Conc. 1.5%) was 50.1 Pa, the “Loss Modulus (G″)” value ([2]; Conc. 1.5%) was 94 Pa and the “Storage Modulus (G′)” value ([2]; Conc. 1.5%) was 1092 Pa. The “Max. Viscosity (max η′)” value ([2]; Conc. 1.5%) was 18.0 Pa · s, the “Loss Modulus (G″)” value ([2]; Conc. 2%) was 138 Pa and the “Storage Modulus (G′)” value ([2]; Conc. 2%) was 1708 Pa. The “Yield Stress” value ([2]; Conc. 2.5%) was 100 Pa, the “Loss Modulus (G″)” value ([2]; Conc. 2.5%) was 174 Pa and the “Storage Modulus (G′)” value ([2]; Conc. 2.5%) was 2213 Pa. For the same substance, the “Max. Viscosity (max η′)” value ([2]; Conc. 2.5%) was 40.2 Pa · s, the “flow behaviour with increasing shear rate” value ([3]; 1.5% solution) was “typical shear thinning properties” and the “yield stress (shear flow test)” value ([3]; 1.5% solution) was “about 60 Pa”. The Storage modulus [4, 6] was 632 Pa, the Storage modulus [4, 7] was 2248 Pa and the Storage modulus ([4]; 2.5%, Before injection) was 2213 Pa. For the same substance, the “apparent viscosity change after shear-thinning unit” value (from here on “apparent viscosity change”) ([5]; 1.5% solution, membrane with a pore size of 5 μm) was “reduced significantly”.
In the case of “Arg-Ala-Asp-Ala-Arg-Ala-Asp-Ala-Arg-Ala-Asp-Ala-Arg-Ala-Asp-Ala [RADA16]”, the “rheological strength after autoclaving versus non-autoclaved” value [1] is reported as “dramatic decrease of rheological strength”, the “Yield Stress” value ([2]; Conc. 1%) is reported as 15.9 Pa and the “Loss Modulus (G″)” value ([2]; Conc. 1%) is reported as 12 Pa. For the same substance, the “Storage Modulus (G′)” value ([2]; Conc. 1%) was 74 Pa, the “Max. Viscosity (max η′)” value ([2]; Conc. 1%) was 2.3 Pa · s and the “Yield Stress” value ([2]; Conc. 1.5%) was 20.0 Pa. The “Loss Modulus (G″)” value ([2]; Conc. 1.5%) was 30 Pa, the “Storage Modulus (G′)” value ([2]; Conc. 1.5%) was 158 Pa and the “Max. Viscosity (max η′)” value ([2]; Conc. 1.5%) was 3.4 Pa · s. The “Yield Stress” value ([2]; Conc. 2%) was 31.6 Pa, the “Loss Modulus (G″)” value ([2]; Conc. 2%) was 39 Pa and the “Storage Modulus (G′)” value ([2]; Conc. 2%) was 217 Pa. For the same substance, the “Max. Viscosity (max η′)” value ([2]; Conc. 2%) was 4.0 Pa · s, the “Yield Stress” value ([2]; Conc. 2.5%) was 50.1 Pa and the “Loss Modulus (G″)” value ([2]; Conc. 2.5%) was 53 Pa. For the same substance, the “Storage Modulus (G′)” value ([2]; Conc. 2.5%) was 352 Pa, the “Max. Viscosity (max η′)” value ([2]; Conc. 2.5%) was 5.6 Pa · s and the “flow behaviour with increasing shear rate” value ([3]; 2.5% solution) was “typical shear thinning properties”. For the same substance, the “yield stress (shear flow test)” value ([3]; 2.5% solution) was “about 40 Pa”, the Storage modulus [4, 8] was 6.8 Pa and the Storage modulus [4, 9] was 40 Pa. The Storage modulus ([4]; 1%, Before injection) was 74 Pa, the Storage modulus [4, 6] was 67 Pa and the Storage modulus [4, 7] was 196 Pa. The Storage modulus ([4]; 2.5%, Before injection) was 352 Pa.
In the case of “KLDLKLDLKLDL [KLD12, self-assembling peptide with repeats of KLDL, tested as solutions of 1 to 2.5%]”, the “times higher maximum viscosity than 2.5% RADA16” value ([2]; 2% solution) is reported as 2 times, the “times higher maximum viscosity than 2.5% RADA16” value ([2]; 2.5% solution) is reported as 3.4 times and the “Yield Stress” value ([2]; Conc. 1%) is reported as 25.1 Pa. For the same substance, the “Loss Modulus (G″)” value ([2]; Conc. 1%) was 25 Pa, the “Storage Modulus (G′)” value ([2]; Conc. 1%) was 140 Pa and the “Max. Viscosity (max η′)” value ([2]; Conc. 1%) was 2.0 Pa · s. For the same substance, the “Yield Stress” value ([2]; Conc. 1.5%) was 39.8 Pa, the “Loss Modulus (G″)” value ([2]; Conc. 1.5%) was 46 Pa and the “Storage Modulus (G′)” value ([2]; Conc. 1.5%) was 292 Pa. For the same substance, the “Max. Viscosity (max η′)” value ([2]; Conc. 1.5%) was 7.1 Pa · s, the “Yield Stress” value ([2]; Conc. 2%) was 79.4 Pa and the “Loss Modulus (G″)” value ([2]; Conc. 2%) was 63 Pa. The “Storage Modulus (G′)” value ([2]; Conc. 2%) was 573 Pa, the “Max. Viscosity (max η′)” value ([2]; Conc. 2%) was 11.0 Pa · s and the “Yield Stress” value ([2]; Conc. 2.5%) was 100 Pa. The “Loss Modulus (G″)” value ([2]; Conc. 2.5%) was 93 Pa, the “Storage Modulus (G′)” value ([2]; Conc. 2.5%) was 846 Pa and the “Max. Viscosity (max η′)” value ([2]; Conc. 2.5%) was 19.0 Pa · s. The Storage modulus [4, 8] was 0.68 Pa, the Storage modulus [4, 9] was 59 Pa and the Storage modulus ([4]; 1%, Before injection) was 140 Pa. It also gave a Storage modulus [4, 6] of 57 Pa, a Storage modulus [4, 7] of 196 Pa and a Storage modulus ([4]; 2.5%, Before injection) of 846 Pa. For the same substance, the “apparent viscosity change” value ([5]; 2.5% solution, pore size of 120 μm) was “remained too viscous to flow down” and the “apparent viscosity change” value ([5]; 2.5% solution, pore sizes of 41 μm, 20 μm, and 5 μm) was “decreased enough to flow down”.
